In the supplement of paper PMC7877785:
± gives the uncertainty stated by the source.

Experiment: self-splicing fitness, log relative to wild type (ln ratio); higher = more splicing; Tetrahymena group I intron in knt gene, E. coli kanamycin selection, DiMSum; sequences stand for … in CUCUCU…GGAGGGAAAAGUUAUCAGGCAUGCACCUGGUAGCUAGUCUUUAAACCAAUAGAUUGCAUCGGUUUAAAAGGCAAGACCGUCAAAUUGCGGGAAAGGGGUCAACAGCCGUUCAGUACCAAGUCUCAGGGGAAACUUUGAGAUGGCCUUGCAAAGGGUAUGGUAAUAAGCUGACGGACAUGGUCCUAACCACGCAGCCAAGUCCUAAGUCAACAGAUCUUCUGUUGAUAUGGAUGCAGUUCACAGACUAAAUGUCGGUCGGGGAAGAUGUAUUCUUCUCAUAAGAUAUAGUCGGACCUCUCCUUAAUGGGAGCUAGCGGAUGAAGUGAUGCAACACUGGAGCCGCUGGGAACUAAUUUGUAUGCGAAAGUAUAUUGAUUAGUUUUGGAGUACUCGUGGUCG
How it was run: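 Pooled colonies went to amplicon sequencing on an Illumina HiSeq 2500 after six replicate transformations. The plates were LB agar with 100 μg/mL carbenicillin, 50 μM IPTG and 0.2% rhamnose, with or without 25 μg/mL kanamycin, incubated overnight at 37°C or 30°C. The E. coli BL21(DE3) library had all eight P1ex-region intron nucleotides randomised, the intron placed in the knt kanamycin-resistance gene on pET-22b(+). DiMSum fitness is the error-weighted combination of replicate fold changes, kanamycin against none, normalised to wild type.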

| Sequence | self-splicing fitness (ln) (30 °C) | self-splicing fitness (ln) (37 °C) |
| --- | --- | --- |
| UUAGAGCAAUAUUACGAAAU | -3.77 ± 0.34 | -3.04 ± 0.47 |
| CGCUAGCAAUAUUACGUCUG | -0.182 ± 0.078 | 0.774 ± 0.089 |
| GGACAGCAAUAUUACGGCCC | -1.7 ± 0.46 | – |
| UCGAAGCAAUAUUACGGACA | -0.385 ± 0.15 | -0.235 ± 0.23 |
| ACCUAGCAAUAUUACGGUCU | -1.69 ± 0.096 | -0.98 ± 0.11 |
| GUGCAGCAAUAUUACGUCCG | -3 ± 0.22 | -0.37 ± 0.18 |
| CGAAAGCAAUAUUACGUGGA | -3.24 ± 0.13 | -1.66 ± 0.096 |
| GACAAGCAAUAUUACGAGUC | -1.85 ± 0.15 | -2.72 ± 0.28 |
| GUGGAGCAAUAUUACGGUCC | -2.12 ± 0.19 | -1.91 ± 0.24 |
| ACGCAGCAAUAUUACGGAGG | -3.65 ± 0.15 | -1.84 ± 0.12 |
| GGUCAGCAAUAUUACGGAAU | -0.593 ± 0.054 | -0.0986 ± 0.069 |
| UGACAGCAAUAUUACGGUCU | -1.58 ± 0.065 | -0.946 ± 0.072 |
| AGCCAGCAAUAUUACGCGCC | -2.18 ± 0.15 | -1.74 ± 0.23 |
| CAUAAGCAAUAUUACGAAUC | -3.25 ± 0.25 | -3.34 ± 0.37 |
| CACUAGCAAUAUUACGAUGC | -3.76 ± 0.18 | -3.05 ± 0.19 |
| UGAAAGCAAUAUUACGACGC | -2.04 ± 0.19 | 0.0256 ± 0.17 |
| GACCAGCAAUAUUACGAAGU | -1.45 ± 0.09 | -0.269 ± 0.1 |
| UAAGAGCAAUAUUACGAUCG | -3.62 ± 0.17 | -1.53 ± 0.18 |
| AUGUAGCAAUAUUACGGCCU | 0.449 ± 0.097 | 0.248 ± 0.12 |
| AAGAAGCAAUAUUACGGGAC | -2.85 ± 0.18 | -2.63 ± 0.44 |

| Sequence | self-splicing fitness (ln) (30 °C) | self-splicing fitness (ln) (37 °C) |
| --- | --- | --- |
| GUACAGCAAUAUUACGUAAU | -1.66 ± 0.087 | -0.807 ± 0.11 |
| AUUUAGCAAUAUUACGCGAC | -2.16 ± 0.27 | -2.87 ± 0.47 |
| UGAAAGCAAUAUUACGAGAC | – | -1.65 ± 0.38 |
| UUGUAGCAAUAUUACGCCCG | -0.143 ± 0.22 | -0.0661 ± 0.23 |
| UUACAGCAAUAUUACGAGUA | -1.5 ± 0.14 | -0.933 ± 0.11 |
| GGUCAGCAAUAUUACGCCUG | -2.9 ± 0.2 | -0.721 ± 0.12 |
| GGUGAGCAAUAUUACGGGUU | – | -2.59 ± 0.36 |
| CCAAAGCAAUAUUACGGCUA | -4.05 ± 0.43 | -2.28 ± 0.28 |
| GCCUAGCAAUAUUACGAACC | -1.07 ± 0.27 | 0.0441 ± 0.29 |
| AGUGAGCAAUAUUACGUUCA | -3.1 ± 0.38 | -2.41 ± 0.37 |
| AGUCAGCAAUAUUACGGGCA | -0.79 ± 0.095 | -0.281 ± 0.11 |
| CGCGAGCAAUAUUACGGCUU | -3.01 ± 0.42 | -2.54 ± 0.26 |
| GUCAAGCAAUAUUACGGAGU | -2.1 ± 0.12 | -0.536 ± 0.12 |
| UUCGAGCAAUAUUACGCAAU | – | -2.13 ± 0.43 |
| AAUCAGCAAUAUUACGGACC | 0.313 ± 0.13 | -0.451 ± 0.13 |
| CACAAGCAAUAUUACGGAAA | -3.04 ± 0.19 | -2.99 ± 0.2 |
| AAGUAGCAAUAUUACGGGCU | -2.02 ± 0.12 | -1.44 ± 0.13 |
| AAUUAGCAAUAUUACGCGUG | -0.374 ± 0.066 | -0.101 ± 0.083 |
| CGAUAGCAAUAUUACGUGUA | -2.23 ± 0.12 | -2.15 ± 0.2 |
